Target: TcdB2 toxin (recombinant, full length) (Clostridium difficile)
Assay: SPR, TcdB2 immobilized, PepB2 injected; multivalent interaction, no affinity or rate constant determined

With “PepB2 (Peptide 5; amino acids 1769-1787 of TcdB2)” the molecules of PepB2 calculated to bind a single molecule of TcdB (molecules of PepB2 per molecule of TcdB) was 250.
